From the supplement of paper PMC10724198
± gives the standard deviation of the averaged measurements.

Experiments:
Saccharomyces cerevisiae [1] = assay: protein stability index of tFT-peptide fusion (C-terminal peptide) (PSI (0-1 scale)); higher = more stable (slower turnover); details: genetic background: wild type; temperature: 30 C
Saccharomyces cerevisiae [2] = assay: as above
Method: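 MPS profiling in S. cerevisiae of the tFT-X12 degron library: putative degron peptides plus stable controls, 12 aa, fused to the C-terminus of a sfGFP-mCherry timer. Cells are FACS-sorted into 8 mCherry/sfGFP bins and deep-sequenced. PSI runs from 0 (unstable) to 1 (stable). Backgrounds are wild type, das1Δ and doa10Δ at 30 °C, and wild type, das1Δ, cdc34-1 and cdc53-1 at 37 °C; 2-3 technical replicates each.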

[3] = genetic background: cdc34-1, temperature: 37 C
[4] = genetic background: cdc53-1, temperature: 37 C
[5] = genetic background: das1 deletion, temperature: 30 C
[6] = genetic background: das1 deletion, temperature: 37 C
[7] = genetic background: doa10 deletion, temperature: 30 C
[8] = genetic background: wild type, temperature: 30 C
[9] = genetic background: wild type, temperature: 37 C
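Note: PSI is a weighted mean of sequencing reads over stability bins, variants kept only with over 10 reads, mCherry proximal and sfGFP distal, peptide attached via GGGS linker.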

Sequence	protein stability index (Saccharomyces cerevisiae [1])	protein stability index (Saccharomyces cerevisiae [2]; [3])	protein stability index (Saccharomyces cerevisiae [2]; [4])	protein stability index (Saccharomyces cerevisiae [2]; [5])	protein stability index (Saccharomyces cerevisiae [2]; [6])	protein stability index (Saccharomyces cerevisiae [2]; [7])	protein stability index (Saccharomyces cerevisiae [2]; [8])	protein stability index (Saccharomyces cerevisiae [2]; [9])
IYFFVLRLRLCG	0.233 ± 0.1	0.278 ± 0.004	0.291 ± 0.021	0.235 ± 0.029	0.428 ± 0.0065	0.16 ± 0.0036	0.162 ± 0.015	0.253 ± 0.0032
KIHILVVQIATR	0.0736 ± 0.038	0.0402 ± 0.0097	0.134 ± 0.0054	0.0541 ± 0.0098	0.1391 ± 0.00019	0.0346 ± 0.0032	0.0319 ± 0.013	0.114 ± 0.0046
KKNITRLKNKMT	0.416 ± 0.14	0.535 ± 0.032	0.676 ± 0.033	0.678 ± 0.031	0.691 ± 0.059	0.212 ± 0.045	0.199 ± 0.093	0.392 ± 0.086
KLLISLTWFCVL	0.284 ± 0.092	0.395 ± 0.036	0.476 ± 0.014	0.373 ± 0.029	0.527 ± 0.019	0.165 ± 0.0032	0.192 ± 0.028	0.3344 ± 0.00067
KLRMGRYIVRII	0.259 ± 0.0076	0.6637 ± 0.0034	0.661 ± 0.041	0.569 ± 0.022	0.6655 ± 0.0023	0.152 ± 0.024	0.135 ± 0.019	0.242 ± 0.012
KVFWRPAWVAEV	0.371 ± 0.026	0.6563 ± 0.0016	0.7475 ± 0.0067	0.631 ± 0.016	0.733 ± 0.0084	0.237 ± 0.011	0.28 ± 0.034	0.512 ± 0.013
LAVFSSPELSFP	0.756 ± 0.024	0.727 ± 0.012	0.788 ± 0.015	0.6631 ± 0.0019	0.761 ± 0.013	0.66 ± 0.034	0.676 ± 0.0088	0.777 ± 0.0036
LCFTSVFTLFIC	0.101 ± 0.024	0.288 ± 0.028	0.469 ± 0.026	0.382 ± 0.026	0.511 ± 0.006	0.0848 ± 0.017	0.0664 ± 0.0089	0.0756 ± 0.015
LCLLPVCLWDVG	0.461 ± 0.023	0.451 ± 0.026	0.513 ± 0.016	0.447 ± 0.0076	0.501 ± 0.0082	0.453 ± 0.0074	0.439 ± 0.017	0.49 ± 0.0072
LCSCAVVICCSL	0.377 ± 0.04	0.445 ± 0.0054	0.4359 ± 0.0021	0.299 ± 0.031	0.4631 ± 0.0044	0.274 ± 0.0047	0.309 ± 0.0072	0.441 ± 0.019
LCSVWVGIVLLC	0.165 ± 0.047	0.156 ± 0.011	0.236 ± 0.045	0.23 ± 0.02	0.313 ± 0.014	0.0996 ± 0.0034	0.0964 ± 0.013	0.107 ± 0.019
LDLSSLRCRYLL	0.343 ± 0.099	0.639 ± 0.058	0.725 ± 0.034	0.657 ± 0.021	0.765 ± 0.021	0.185 ± 0.011	0.214 ± 0.014	0.427 ± 0.0081
LDTTSRSRAKIS	0.164 ± 0.032	0.509 ± 0.031	0.6775 ± 0.0026	0.625 ± 0.022	0.718 ± 0.013	0.0782 ± 0.032	0.0968 ± 0.048	0.138 ± 0.021
LFFGLCFVFFGF	0.378 ± 0.046	0.384 ± 0.022	0.459 ± 0.0067	0.362 ± 0.032	0.48 ± 0.0058	0.407 ± 0.015	0.366 ± 0.013	0.4582 ± 0.0013
LFFLSASFFFFF	0.289 ± 0.0064	0.458 ± 0.011	0.554 ± 0.0066	0.449 ± 0.034	0.547 ± 0.0075	0.222 ± 0.0092	0.207 ± 0.033	0.356 ± 0.067
LFFSPRRLSPPT	0.748 ± 0.011	0.705 ± 0.024	0.7533 ± 0.0049	0.695 ± 0.03	0.778 ± 0.022	0.688 ± 0.019	0.695 ± 0.015	0.746 ± 0.022
LFIVTFIPVLFS	0.494 ± 0.0074	0.49 ± 0.064	0.545 ± 0.034	0.374 ± 0.016	0.623 ± 0.0088	0.41 ± 0.0081	0.384 ± 0.041	0.59 ± 0.08
LFMLHFLAVLRY	0.308 ± 0.099	0.124 ± 0.054	0.1407 ± 0.00041	0.272 ± 0.037	0.3358 ± 0.003	0.337 ± 0.017	0.242 ± 0.027	0.311 ± 0.011
LFSFVCLVFFLW	0.38 ± 0.07	0.312 ± 0.017	0.375 ± 0.006	0.291 ± 0.03	0.441 ± 0.0094	0.306 ± 0.032	0.27 ± 0.026	0.4178 ± 0.00065
LFSPLKGILSVM	0.448 ± 0.018	0.589 ± 0.0073	0.664 ± 0.011	0.51 ± 0.032	0.691 ± 0.0074	0.2641 ± 0.00021	0.316 ± 0.027	0.5081 ± 0.0023

Sequence	protein stability index (Saccharomyces cerevisiae [1])	protein stability index (Saccharomyces cerevisiae [2]; [3])	protein stability index (Saccharomyces cerevisiae [2]; [4])	protein stability index (Saccharomyces cerevisiae [2]; [5])	protein stability index (Saccharomyces cerevisiae [2]; [6])	protein stability index (Saccharomyces cerevisiae [2]; [7])	protein stability index (Saccharomyces cerevisiae [2]; [8])	protein stability index (Saccharomyces cerevisiae [2]; [9])
LFTTYVFLVFFQ	0.372 ± 0.012	0.345 ± 0.011	0.474 ± 0.0096	0.337 ± 0.027	0.511 ± 0.0082	0.2692 ± 0.0019	0.29 ± 0.018	0.4367 ± 0.0009
LFVFTYPFLSWL	0.478 ± 0.0061	0.617 ± 0.011	0.66 ± 0.011	0.591 ± 0.042	0.6963 ± 0.0031	0.552 ± 0.028	0.514 ± 0.016	0.615 ± 0.0094
LFVMVSVSGLVV	0.261 ± 0.017	0.0501 ± 0.016	0.0999 ± 0.071	0.159 ± 0.031	0.255 ± 0.0059	0.145 ± 0.0021	0.16 ± 0.026	0.235 ± 0.0073
LFVVHCFLSVSS	0.109 ± 0.039	0.0267 ± 0.0027	0.0524 ± 0.033	0.0648 ± 0.021	0.165 ± 0.0062	0.0415 ± 0.0025	0.0374 ± 0.017	0.133 ± 0.029
LFWFRGTIVTPR	0.693 ± 0.034	0.693 ± 0.027	0.726 ± 0.017	0.638 ± 0.015	0.7371 ± 0.0069	0.635 ± 0.019	0.6335 ± 0.0044	0.705 ± 0.018
LGCFGSSFVFCC	0.23 ± 0.016	0.565 ± 0.015	0.668 ± 0.02	0.553 ± 0.029	0.685 ± 0.015	0.138 ± 0.0034	0.155 ± 0.017	0.355 ± 0.0038
LGRVSAKFFCVL	0.239 ± 0.022	0.654 ± 0.066	0.74 ± 0.013	0.646 ± 0.014	0.7237 ± 0.0027	0.13 ± 0.015	0.134 ± 0.022	0.246 ± 0.018
LGVCLFFVRCWS	0.174 ± 0.047	0.1796 ± 0.0014	0.205 ± 0.0098	0.189 ± 0.033	0.324 ± 0.019	0.159 ± 0.025	0.184 ± 0.033	0.271 ± 0.034
LIFRLCVCGVFW	0.4101 ± 0.00073	0.516 ± 0.03	0.549 ± 0.015	0.468 ± 0.044	0.5218 ± 0.0011	0.278 ± 0.017	0.271 ± 0.032	0.376 ± 0.009
LILRVLFLFEPC	0.42 ± 0.025	0.4385 ± 0.0028	0.4842 ± 0.0035	0.389 ± 0.026	0.511 ± 0.0049	0.395 ± 0.022	0.368 ± 0.031	0.481 ± 0.0066
LIRLCVAPMVCR	0.438 ± 0.015	0.455 ± 0.02	0.48 ± 0.0056	0.349 ± 0.023	0.5145 ± 0.0016	0.32 ± 0.005	0.349 ± 0.02	0.485 ± 0.011
LKKTLNGRRKMI	0.416 ± 0.037	0.626 ± 0.019	0.73 ± 0.042	0.638 ± 0.048	0.736 ± 0.015	0.239 ± 0.063	0.282 ± 0.036	0.373 ± 0.02
LLASFWKFIVNI	0.23 ± 0.016	0.613 ± 0.036	0.722 ± 0.015	0.641 ± 0.058	0.7 ± 0.073	0.139 ± 0.012	0.166 ± 0.012	0.166 ± 0.011
LLAWLHTVQRVG	0.339 ± 0.011	0.695 ± 0.028	0.7529 ± 0.0028	0.659 ± 0.02	0.7844 ± 0.0033	0.226 ± 0.0046	0.271 ± 0.023	0.493 ± 0.013
LLFLVCFFPSIS	0.454 ± 0.05	0.46 ± 0.061	0.534 ± 0.016	0.311 ± 0.045	0.549 ± 0.033	0.304 ± 0.0092	0.313 ± 0.043	0.52 ± 0.036
LLFYSYFFFVLY	0.265 ± 0.0037	0.172 ± 0.034	0.148 ± 0.0098	0.248 ± 0.021	0.341 ± 0.015	0.312 ± 0.023	0.213 ± 0.0032	0.286 ± 0.023
LLGGRVLWAWRV	0.376 ± 0.022	0.653 ± 0.045	0.689 ± 0.052	0.626 ± 0.016	0.737 ± 0.019	0.155 ± 0.026	0.199 ± 0.022	0.3907 ± 0.0025
LLLLFPSPLFIR	0.281 ± 0.05	0.126 ± 0.057	0.0999 ± 0.026	0.235 ± 0.012	0.303 ± 0.022	0.553 ± 0.024	0.216 ± 0.019	0.272 ± 0.02
LLLRQVFSLGVF	0.162 ± 0.0081	0.549 ± 0.048	0.64 ± 0.023	0.558 ± 0.011	0.6741 ± 0.0063	0.104 ± 0.018	0.142 ± 0.014	0.312 ± 0.021
